According to patent US20160009800A1 (XOMA US, published 2016):
Residue numbers refer to the chain shown, from its start. Each block holds one binder with its values, some of them ahead of it.

How the values were obtained:
mouse insulin receptor [1] = target: T1, mouse insulin receptor (mouse, UniProt P15208 28-1372); assay: FACS on mouse INSR; conditions not given on the sheet
T1 construct: whole, on cells; also called muINSR; mINSR

[2] = target: T2, mouse insulin receptor complexed with human insulin (mouse; human, UniProt P15208 28-1372; P01308 25-54; P01308 90-110); assay: FACS, CHO-K1 mouse INSR cells, signal with insulin divided by signal without insulin
T2 construct: whole, on cells;mature; also called muINSR/hINS complex
Protocol: (§1) Twenty five microliter aliquots of cells were plated into 96 well plates, mixed with 25 ul of antibody or PPE and incubated on ice for 1 h.
(§2) The cells were then washed once with FACS buffer and the binding of the antibody was detected by the addition of 25 ul of an appropriate fluorochrome-conjugated secondary antibody. […] After a final 15 min incubation on ice the cells were washed and the pellets resuspended in FACS buffer. The cells were analyzed on a FACSCAN™ (Becton-Dickinson, Milipitas, Calif.) and the data analyzed in both FLOWJO™ (Treestar, Ashland, Oreg.) and Microsoft Excel™.

mouse insulin receptor [3] = target: T1, mouse insulin receptor; assay: FACS, serum-starved CHO-K1 cells expressing mouse INSR, no insulin
[4] = target: T2, mouse insulin receptor complexed with …; assay: FACS, serum-starved CHO-K1 cells expressing mouse INSR, with insulin
Protocol: as §1, §2

human insulin receptor = target: T3, human insulin receptor (human, UniProt P06213 28-1382); assay: FACS, serum-starved CHO-K1 cells expressing human INSR, no insulin
T3 construct: whole, on cells; Uncomplexed receptor on serum-starved cells (CHOK1 transfectants or IM-9); also called hINSR; INSR
Protocol: as §1, §2

binding result (mouse insulin receptor [1]): binds
B1: Ab017 (antibody, V domains shown)
VH: EVQLLESGGGLVQPGGSLRLSCAASGFTFSSYSMNWVRQAPGKGLEWVSVIYSGDSTYYADSVKGRFTISRDNSKNTLYLQMNSLRAEDTAVYYCARQVRDGDYGDWFDPWGQGTLVTVSS
VL: QSVLTQPPSASGTPGQRVTISCTGSSSNIGAGYDVHWYQQLPGTAPKLLIYGNSNRPSGVPDRFSGSKSGTSASLAISGLRSEDEADYYCAAWDDSLSGWVFGGGTKLTVLG
notes: also called XPA.015.017

binding result (mouse insulin receptor [1]): binds
B2: Ab030 (antibody, V domains shown)
VH: EVQLLESGGGLVQPGGSLRLSCAASGFTFSSYSMNWVRQAPGKGLEWVSAISGSGGSTYYADSVKGRFTISRDNSKNTLYLQMNSLRAEDTAVYYCARDSWELLGYDAFDIWGQGTLVTVSS
VL: B1 VL with G52D, S54N, N55K, A92S, L97H, S98L, G99H, W100V, V101L
notes: also called XPA.015.036

binding result (mouse insulin receptor [1]): binds
B3: Ab032 (antibody, V domains shown)
VH: EVQLLESGGGLVQPGGSLRLSCAASGFTFSNYAMGWVRQAPGKGLEWVSSISGSGGTTYYADSVKGRFTISRDNSKNTLYLQMNSLRAEDTAVYYCARHKGLQPLDYWGQGTLVTVSS
VL: QSVLTQPPSASGTPGQRVTISCSGSISNIGSNYVSWYQQLPGTAPKLLIYGNSNRPSGVPDRFSGSKSGTSASLAISGLRSEDEADYYCAAWDDSLSPHVVFGGGTKLTVLG
notes: also called XPA.015.093

binding result (mouse insulin receptor [1]): binds
B4: Ab006 (antibody, V domains shown)
VH: B3 VH
VL: B3 VL
notes: also called XPA.015.013

binding result (mouse insulin receptor [1]): binds
B5: Ab036 (antibody, V domains shown)
VH: B3 VH
VL: B3 VL with I26S, S31G, Y33S, S35H
notes: also called XPA.015.047

binding result (mouse insulin receptor [1]): binds
B6: Ab011 (antibody, V domains shown)
VH: B3 VH with S118F
VL: B3 VL
notes: also called XPA.015.085

binding result (mouse insulin receptor [1]): binds
B7: Ab009 (antibody, V domains shown)
VH: B3 VH with G15W, L79P
VL: B3 VL
notes: also called XPA.015.075

FACS area under log transformed data MFI ratio (+insulin/-insulin) [2]: 0.61
FACS area under log transformed data MFI (mouse insulin receptor [3]): 409
FACS area under log transformed data MFI [4]: 250
B8: Ab057 (antibody, IgG2, V domains shown)
VH: QMQLVQSGAEVKKPGESLKISCKGYGYRFSDNWIGWVRQMPGRGLEWMGIIYPGDSETRYSPSFQGQVTISADKSISTAYLQWSSLKASDTAMYYCARHAPLAVAGMALGDWGQGTLVTVSS
VL: QTVVTQEPSFSVSPGGTVTLTCGLTSGSVSTSYYPSWYQQTPGQAPRMLVHSTSTRYSGVPDRFSGSILGNKAALTITGAQADDESDYYCALYMGGGIYVFGGGTQLTVL
notes: also called XPA.015.200

binding result (mouse insulin receptor [1]): no binding
B9: Ab002 (antibody, V domains shown)
VH: EVKLVESEEGLVKPGGSLKLSCAASGFTFSNYAMSWVRQTPEKRLEWVATISDGGHYTYYSDTIKGRFTISRDNAKNNLFLQLSHLKSEDTAIYYCARGTVFDYWGQGTTLTVSS
VL: DIQMTQTTSSLSASLGDRVTISCRASQDISNYLNWYQQKPDGTVKLLIYYTSRLHSGVPSRFSGSGSGTDYSLTISNLEPEDIATFYCQQYSDLPYTFGGGTKLEIKR
notes: also called XPA.015.190

FACS area under log transformed data MFI (human insulin receptor): 357
FACS area under log transformed data MFI ratio (+insulin/-insulin) [2]: 0.6
FACS area under log transformed data MFI (mouse insulin receptor [3]): 642
FACS area under log transformed data MFI [4]: 383
B10: Ab069 (antibody, IgG2, V domains shown)
VH: EVQLVQSGAEVKKPGESLKISCKGSGYSFTSYWIGWVRQMPGKGLEWMGIIYPGDSDTRYSPSFQGQVTISADKSISIAYLQWSSLKASDTAMYYCARLGRGYYGMDVWGQGTTVTVSS
VL: SSELTQDPAVSVALGQTVRITCQGDSLRSYYASWYQQKPGQAPVLVIYGKNNRPSGIPDRFSGSRSGNTASLTITGAQAEDEADYYCNSRDSSGNHVVFGGGTKVTVL
notes: also called XPA.015.222

binding result (mouse insulin receptor [1]): no binding
B11: Ab026 (antibody, V domains shown)
VH: EVQLLESGGGLVQPGGSLRLSCAASGFTFSNYVISWVRQAPGKGLEWVSAISGSGGSTFYPDSVKGRFTISRDNSKNTLYLQMNSLRAEDTAMYYCARVGLSGWYYFDYWGQGTLVTVSS
VL: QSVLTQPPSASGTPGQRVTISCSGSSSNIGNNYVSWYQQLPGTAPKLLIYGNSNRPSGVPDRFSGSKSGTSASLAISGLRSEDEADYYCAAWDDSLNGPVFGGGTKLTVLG
notes: also called XPA.015.026

binding result (mouse insulin receptor [1]): no binding
B12: Ab031 (antibody, V domains shown)
VH: EVQLLESGGGLVQPGGSLRLSCAASGFTFSSNYMSWVRQAPGKGLEWVSSISGGSTYYADSRKGRFTISRDNSKNTLYLQMNSLRAEDTAVYYCARLDWSSGAFDIWGQGTLVTVSS
VL: QSVLTQPPSASGTPGQRVTISCSGRSSNIGYNYVSWYQQLPGTAPKLLIYGNSNRPSGVPDRFSGSKSGTSASLAISGLRSEDEADYYCAAWDDSLSGPVFGGGTKLTVLG
notes: printed on the sheet as Ab031` with a stray mark; also called XPA.015.037

binding result (mouse insulin receptor [1]): no binding
B13: Ab024 (antibody, V domains shown)
VH: EVQLLESGGGLVQPGGSLRLSCAASGFTFSDYYMSWIRRAPGKGLEWVSRISWNSGSIGYADSLKGRFTISRDNSKNTLYLQMNSLRAEDTAVYYCARERGYGYDYWGQGTLVTVSS
VL: B12 VL with R25T, I29L, Y31S, N32H, Y33T, G51D, S53N, N54E, G98A, P99W
notes: also called XPA.015.022

binding result (mouse insulin receptor [1]): no binding
B14: Ab027 (antibody, V domains shown)
VH: EVQLLESGGGLVQPGGSLGLSCAASGFTFNNYWMSWVRQAPGKGLEWVSYISGSGRTIYYADSVKGRFTISRDNSKNTLYLQMNSLRAEDTAVYYCARVGSSGWYYFDYWGQGTLVTVSS
VL: B12 VL with G30E, Y31N, S97N, P99V
notes: also called XPA.015.042

binding result (mouse insulin receptor [1]): binds
B15: Ab038 (antibody, V domains shown)
VH: EVQLLESGGGLVQPGGSLRLSCAASGFTFSNYAMTWVRQAPGKGLEWVSYIHAGGGTHYANSVKGRFTISRDNSKNTLYLQMNSLRAEDTAVYYCARDLHWEGWGLGFDYWGQGTLVTVSS
VL: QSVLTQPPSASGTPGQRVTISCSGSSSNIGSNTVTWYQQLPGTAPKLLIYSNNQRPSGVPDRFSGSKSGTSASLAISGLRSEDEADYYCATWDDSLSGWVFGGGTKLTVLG
notes: also called XPA.015.065

binding result (mouse insulin receptor [1]): no binding
B16: Ab042 (antibody, V domains shown)
VH: B15 VH
VL: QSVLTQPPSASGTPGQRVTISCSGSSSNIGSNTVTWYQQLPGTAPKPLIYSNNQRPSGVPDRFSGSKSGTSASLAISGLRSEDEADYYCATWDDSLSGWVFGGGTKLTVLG
notes: also called XPA.015.086

FACS area under log transformed data MFI (human insulin receptor): 252
FACS area under log transformed data MFI ratio (+insulin/-insulin) [2]: 0.4
FACS area under log transformed data MFI (mouse insulin receptor [3]): 424
FACS area under log transformed data MFI [4]: 170
B17: Ab050 (antibody, IgG2, V domains shown)
VH: QVQLVQSGAELKKPGATVKISCKVSGYTFGDYHMHWVKQAPGKGLEWMGLVDPENGETEYGEKFQDRITMAADTSTDTAYMELSSLRSEDTAVYYCARSPSSSGYFRVDGFDIWGQGTMVTVSS
VL: NFMLTQPHSVSESPGKTVSISCTGSSGSIGSNYVQWYQQRPGSAPTTVIYEDNQRPSGVPDRFSGSIDSSSNSASLTISGLKTEDEADYYCQSYYNSNVVFGGGTKLTVL
notes: also called XPA.015.193

binding result (mouse insulin receptor [1]): no binding
B18: Ab028 (antibody, V domains shown)
VH: EVQLLESGGGLVQPGGSLRLSCAASGFTFRNYWMTWVRQAPGKGLEWVANIKQDGSEKYYVDSVKGRSTISRDNSKNTLYLQMNSLRAEDTAVYYCARQVGGGPFDIWGQGTLVTVSS
VL: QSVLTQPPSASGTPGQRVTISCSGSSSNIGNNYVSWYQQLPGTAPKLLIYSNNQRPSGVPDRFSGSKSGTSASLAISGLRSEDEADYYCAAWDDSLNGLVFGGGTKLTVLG
notes: also called XPA.015.059

binding result (mouse insulin receptor [1]): binds
B19: Ab018 (antibody, V domains shown)
VH: EVQLLESGGGLVQPGGSLRLSCAASGFTFSSYWMSWVRQAPGKGLEWVSGISGSGGYIHYADSVKGRFTISRDDSKNTLYLQMNSLRAEDTAVYYCAREGSGWLVDQWGQGTLVTVSS
VL: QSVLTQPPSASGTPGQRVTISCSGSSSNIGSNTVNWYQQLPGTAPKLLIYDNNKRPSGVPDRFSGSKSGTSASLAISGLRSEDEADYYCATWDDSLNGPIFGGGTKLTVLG
notes: also called XPA.015.139

binding result (mouse insulin receptor [1]): binds
B20: Ab014 (antibody, V domains shown)
VH: EVQLLESGGGLVQPGGSLRLSCAASGFTFSNAWMSWVRQAPGKGLEWVSAISGSGGSTYYADSVKGRFTISRDNSKNTLYLQMNSLRAEDTAVYYCAAPTVPYYYYGMDVWGQGTLVTVSS
VL: QSVLTQPPSASGTPGQRVTISCSGCSSNIGNNAVNWYQQLPGTAPKLLIYRSDQRLAGVPDRFSGSKSGTSASLAISGLRSEDEADYYCQSYDSSLIGHWVFGGGTKLTVLG
notes: also called XPA.015.158

FACS area under log transformed data MFI (human insulin receptor): 205
FACS area under log transformed data MFI ratio (+insulin/-insulin) [2]: 0.37
FACS area under log transformed data MFI (mouse insulin receptor [3]): 483
FACS area under log transformed data MFI [4]: 177
B21: Ab065 (antibody, IgG2, V domains shown)
VH: QVQLVQSGAEVKKPGESLKISCKGSGYSFTSYWIGWVRQMPGKGLEWMGIIYPGDSDTRYSPSFQGQVTISADKSISTAYLQWSSLKASDTAMYYCARHELGIDYWGQGTLVTVSS
VL: QAGLTQPPSVSKGLRQTATLTCTGDNNIVGDQGAAWLQQHQGHPPKLLSFRNNSRPSGISERFSASRSRNTASLTITRLQPEDAADYYCSAWDSFLSAWVFGGGTKLTVL
notes: also called XPA.015.214

binding result (mouse insulin receptor [1]): binds
B22: Ab039 (antibody, V domains shown)
VH: EVQLLESGGGLVQPGGSLRLSCAASGFTFSSYWMSWVRQAPGKGLEWVSGISGSGGYTSYADSVKGRFTISRDNSKNTLYLQMNSLRAEDTAVYYCAKDSSDWYINSWGQGTLVTVSS
VL: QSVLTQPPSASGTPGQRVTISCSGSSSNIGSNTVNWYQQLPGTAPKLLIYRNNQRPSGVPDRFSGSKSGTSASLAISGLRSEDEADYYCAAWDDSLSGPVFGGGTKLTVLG
notes: also called XPA.015.074

binding result (mouse insulin receptor [1]): binds
B23: Ab040 (antibody, V domains shown)
VH: EVQLLESGGGLVQPGGSLRLSCAASGFTFSSYWMSWVRQAPGKGLEWVAVISKDGSSTDYAHSVKGRFTISRDNSKNTLYLQMNSLRAEDTAVYYCARDRDWIPGDVWGQGTLVTVSS
VL: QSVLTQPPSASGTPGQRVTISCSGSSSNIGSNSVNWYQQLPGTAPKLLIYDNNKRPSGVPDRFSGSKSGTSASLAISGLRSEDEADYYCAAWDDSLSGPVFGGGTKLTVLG
notes: also called XPA.015.077
